# Molecular target: MHC class I (HLA-ABC) on Me275 and Me290 melanoma cells
# Assay: cell-based or functional assay
substance,measurement,value
"purified mouse anti-human HLA-ABC mAb (clone W6/32, DAKO) (antibody)",inhibition of specific lysis (4 hour 51Cr release assay),> 60%
same,"specific lysis with W6/32 mAb (4 hour 51Cr release assay, E:T ratio 15:1)",4 % lysis
